{
  "source": "patent US20220339099A1",
  "about": "(published 2022)",
  "binders": {"B1": {"name": "rhIL-1α (recombinant human interleukin-1 alpha) (ligand, UniProt P01583 113-271, looked up)", "chain": "SAPFSFLSNVKYNFMRIIKYEFILNDALNQSIIRANDQYLTAAALHNLDEAVKFDMGAYKSSKDDAKITVILRISKTQLYVTAQDEDQPVLLKEMPEIPKTITGSETNLLFFWETHGTKNYFTSVAHPNLFIATKQDYWVCLAGGPPSITDFQILENQA", "notes": "also called rhlL-1α"}},
  "target": "T1, human IL-1 type 1 receptor (IL-1R1) (human, UniProt P14778 18-336, limits assumed)",
  "T1 construct": "SPR reagent; also called IL-1RI; interleukin-1 type I receptor",
  "T1 sequence (looked up)": "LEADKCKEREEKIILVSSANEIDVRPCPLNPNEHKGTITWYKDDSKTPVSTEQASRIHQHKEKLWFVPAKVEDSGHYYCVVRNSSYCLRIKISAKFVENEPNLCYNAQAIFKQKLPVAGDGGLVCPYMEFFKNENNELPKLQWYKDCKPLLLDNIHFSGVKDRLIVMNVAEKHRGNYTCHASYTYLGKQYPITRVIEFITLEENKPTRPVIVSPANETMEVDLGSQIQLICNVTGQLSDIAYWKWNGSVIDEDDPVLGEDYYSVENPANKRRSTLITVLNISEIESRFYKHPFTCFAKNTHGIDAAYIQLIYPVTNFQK",
  "experiment": "surface plasmon resonance",
  "data": [
    {"binder": "B1", "values": [
      {"measurement": "Kd", "value": 547, "unit": "nM"},
      {"measurement": "koff", "value": 0.00145, "unit": "s⁻¹"},
      {"measurement": "kon", "value": 2650, "unit": "M⁻¹ s⁻¹"}
    ]}
  ]
}
